# From patent publication US20250019457A1 (IBIO, published 2025)
# Positions count from the first letter of the chain named. Read-outs that look alike come from different tables or passages of the source.
# T1: human EpCAM (purified recombinant antigen, Acro Biosystems Cat #EPM-H5223) (human, UniProt P16422 24-265)
# T1 construct: Bought recombinant protein
# T1 sequence: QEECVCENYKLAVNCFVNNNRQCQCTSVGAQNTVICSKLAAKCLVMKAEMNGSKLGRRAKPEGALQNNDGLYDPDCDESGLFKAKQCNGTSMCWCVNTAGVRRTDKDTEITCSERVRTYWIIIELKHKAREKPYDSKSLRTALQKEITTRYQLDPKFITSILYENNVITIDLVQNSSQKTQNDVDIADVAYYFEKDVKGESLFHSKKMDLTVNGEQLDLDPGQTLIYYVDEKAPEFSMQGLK
# T2: mouse TROP2 (purified recombinant antigen, Acro Biosystems Cat #TR2-M52H6) (mouse, UniProt Q8BGV3 25-270)
# T2 construct: Bought recombinant protein; also called msTROP2
# T2 sequence: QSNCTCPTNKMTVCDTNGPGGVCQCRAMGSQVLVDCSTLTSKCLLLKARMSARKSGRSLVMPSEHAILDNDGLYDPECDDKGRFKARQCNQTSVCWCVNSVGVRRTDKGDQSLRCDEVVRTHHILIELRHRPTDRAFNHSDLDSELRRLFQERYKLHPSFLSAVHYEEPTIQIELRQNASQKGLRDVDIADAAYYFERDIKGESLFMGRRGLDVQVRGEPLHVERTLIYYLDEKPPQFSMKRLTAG
# T3: cynomolgus/rhesus TROP2 (purified recombinant antigen, Acro Biosystems Cat #TR2-R52H3) (cynomolgus/rhesus, UniProt P09758 27-274 (human entry))
# T3 construct: Bought recombinant protein; also called cyTROP2; cyno/rhesus TROP2
# T3 chain: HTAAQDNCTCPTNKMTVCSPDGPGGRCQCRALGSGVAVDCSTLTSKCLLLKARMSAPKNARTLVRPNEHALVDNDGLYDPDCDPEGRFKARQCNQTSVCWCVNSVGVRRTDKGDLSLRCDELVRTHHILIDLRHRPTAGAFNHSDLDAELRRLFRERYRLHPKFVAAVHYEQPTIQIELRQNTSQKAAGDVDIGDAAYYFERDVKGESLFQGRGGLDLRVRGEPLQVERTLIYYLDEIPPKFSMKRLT
# T4: human TROP2 (purified recombinant antigen, Acro Biosystems Cat #TR2-H5223) (human, UniProt P09758 27-274)
# T4 construct: Bought recombinant protein; also called huTROP2
# T4 sequence: T3 chain with V36M, N67S, V204I
# T5: human Trop2 on cells (FaDu cells, endogenous; ExpiCHO cells overexpressing human Trop2) (human, UniProt P09758 27-323)
# T5 construct: Cell-surface form
# T5 sequence: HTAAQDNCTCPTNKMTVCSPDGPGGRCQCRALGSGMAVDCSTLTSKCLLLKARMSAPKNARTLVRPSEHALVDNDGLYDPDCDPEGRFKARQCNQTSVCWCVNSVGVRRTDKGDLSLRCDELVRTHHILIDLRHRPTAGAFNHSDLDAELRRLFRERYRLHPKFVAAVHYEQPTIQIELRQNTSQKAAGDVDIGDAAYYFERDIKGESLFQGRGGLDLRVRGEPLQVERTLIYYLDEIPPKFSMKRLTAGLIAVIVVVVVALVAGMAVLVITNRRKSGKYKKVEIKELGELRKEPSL
# T6: mouse Trop2 on ExpiCHO cells overexpressing mouse Trop2 (mouse, UniProt Q8BGV3 25-317)
# T6 construct: Cell-surface form
# T6 sequence: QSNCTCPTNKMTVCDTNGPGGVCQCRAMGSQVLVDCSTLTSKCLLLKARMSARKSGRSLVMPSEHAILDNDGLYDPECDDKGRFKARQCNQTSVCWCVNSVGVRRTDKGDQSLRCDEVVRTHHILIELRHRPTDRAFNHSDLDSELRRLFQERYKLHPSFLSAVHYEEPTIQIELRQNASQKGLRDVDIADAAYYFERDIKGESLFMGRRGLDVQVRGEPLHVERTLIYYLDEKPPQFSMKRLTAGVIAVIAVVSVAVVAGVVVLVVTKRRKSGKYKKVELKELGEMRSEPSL
# B1: SD-025096 (antibody, V domains shown)
# VH: QVQLQQSGAELVRPGASVKLSCKASGYTFTSYWINWVKQRPGQGLEWIGNIFPSGSYTNYNQKFKDRATLTVDKSSSTAFMQLSSPTSEDSAIYFCTRGSGFDYWGQGTTLTVSS
# VL: DIVLTQSPATLSVTPGDSVSLSCRASQSISNNLHWYQQKSHESPRLLIKYASQSISGIPSRFSGSGSGTDFTLSINSVETEDFGMYFCQQSNSWPFTFGSGTKLEIK
# notes: Mouse/human chimera; also called Human IgG1 SD-025096
# B2: SD-071877 (antibody, V domains shown)
# VH: AVTLDESGGGLQTPGGALSLVCKASGFDFSGYGMGWVRQAPGKGLEWVAGITNDGRYIGHGSAVKGRATISRDNGQSTVRLQLNNLRAEDTGTYFCTKCAYRSGCDYEAGSIDAWGHGTEVIVSS
# VL: ALALTQPSSVSANLGGTVKITCSGDNNWYGWYQQKSPGSAPVTVIYYDDKRPSDIPSRFSGSRSGSTGTLTITGVQAEDEAVYFCGNRDSSAGYVGIFGAGTTLTVL
# notes: Chicken/human chimera
# B3: Gen 1 (antibody, V domains shown)
# VH: EVQLVESGGGLVQPGGSLRLSCAASGFTFNTYAMNWVRQAPGKGLEWVGRIRSKYNNYATYYADSVKGRFTISRDDSKNTLYLQMNSLRAEDTAVYYCVRHGNFGNSYVSWFAYWGQGTLVTVSS
# VL: DIQMTQSPSSLSASVGDRVTITCRSSTGAVTTSNYANWVQQKPGKAPKGLIGGTNKRAPGVPARFSGSGSGTDFTLTISSLQPEDFATYYCALWYSNLWVFGQGTKVEIK
# notes: also called CD3 Gen 1; Gen1 CD3
# Tests used:
# [1] = target: T1, human EpCAM (purified recombinant …); assay: SPR, Carterra LSA; antibody captured on anti-human IgG, antigen injected
# [2] = target: T2, mouse TROP2 (purified recombinant …); assay: as above
# [3] = target: T3, cynomolgus/rhesus TROP2 (purified …); assay: SPR, Carterra LSA; antibody captured on anti-human IgG, antigen injected; 1:1 fit
# [4] = target: T4, human TROP2 (purified recombinant …); assay: as above
# [5] = target: T4, human TROP2 (purified recombinant …); assay: MSD assay: biotinylated TROP2 on streptavidin plate, antibody titrated, anti-human SULFO-TAG detection
# [6] = target: T4, human TROP2 (purified recombinant …); assay: SPR, Carterra LSA; antibody captured on anti-human IgG, antigen injected; 1:1 fit; remark: listed apart in the source
# [7] = target: T5, human Trop2 on cells (FaDu cells, …); assay: flow cytometry on FaDu cells (endogenous human Trop2); average of n=1-3 experiments
# [8] = target: T6, mouse Trop2 on ExpiCHO cells …; assay: flow cytometry on ExpiCHO cells overexpressing mouse Trop2, percent of cells bound; histogram overlay at 66.67 nM
# [9] = target: T7, recombinant CD3ϵδ-HRP heterodimer (Acro Biosystems CDD-HR2W3) (Homo sapiens (Human), UniProt P07766 23-126; P04234 22-105, Conjugated to horseradish peroxidase (HRP). The site and chemistry are not stated and the letters do not carry it.); assay: direct ELISA: antibody coated at 5 ug/mL, CD3ϵδ-HRP titrated (the axis is the CD3ϵδ-HRP concentration), absorbance at 450 nm
# T7 construct: Bought HRP conjugate; also called CD3ϵδ heterodimer; not shown: The HRP conjugate and any vendor tags or fusion partners on the two chains (Acro Biosystems CDD-HR2W3); copies: 1 + 1
# T7 sequence (P07766 23-126 limits assumed, stated change not applied, chain 1 of 2): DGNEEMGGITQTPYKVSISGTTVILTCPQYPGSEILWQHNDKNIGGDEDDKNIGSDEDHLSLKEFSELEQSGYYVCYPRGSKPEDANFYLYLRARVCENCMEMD
# T7 sequence (P04234 22-105 limits assumed, stated change not applied, chain 2 of 2): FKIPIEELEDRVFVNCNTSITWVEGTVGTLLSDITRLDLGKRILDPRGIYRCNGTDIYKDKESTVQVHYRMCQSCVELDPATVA
Binder,binding result [1],binding result [2],Kd [3] [nM],Kd [4] [nM],EC50 (read off the curve) [5] [nM],Kd [6] [nM],koff [6] [s⁻¹],kon [6] [M⁻¹ s⁻¹],EC50 [7] [nM],binding result [8],EC50 (read off the curve) [9] [µg/mL]
B1,no binding (tested: 1 µM top concentration),no binding (tested: 1 µM top concentration),6.55,5.47,~0.2,5.47,0.00165,301000,1.99,–,–
B2,no binding (tested: 1 µM top concentration),–,4.96,0.31,–,0.31,0.000143,457000,1.09,no binding (tested: 66.67 nM),–
B3,–,–,–,–,–,–,–,–,–,–,~0.04
